Test results as given in the supplement of paper PMC10567573.
± gives the standard deviation.

Assay: protein stability index of a GFP-peptide fusion (GPS, HEK-293T) (PSI 1-6); higher = more stable
[1] = treatment: DMSO, c terminus: a fixed tail appended
[2] = treatment: MLN4924 1 uM, 8 h, c terminus: a fixed tail appended
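Further: 24-mer peptide tiles fused after GFP, lentivirally expressed, FACS-sorted into six equal bins by GFP/DsRed ratio, decoded by Illumina sequencing, PSI is the read-weighted mean bin number.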

LRQFDLAWQYGPCTGITRLQRWCR [POLD4]
protein stability index [1]: 2.26 ± 0.21
protein stability index [2]: 2.32 ± 0.27

LSAASPDTGHDSDKSDQSLPNASA [TRAF3IP2]
protein stability index [1]: 5.53 ± 0.28
protein stability index [2]: 5.51 ± 0.13

LSASGPFESHDLLRKGFSCVKNEL [POMP]
protein stability index [1]: 3.37 ± 0.053
protein stability index [2]: 3.35 ± 0.43

LSKFDLPEEPSAEDSINNSLVQLQ [MYBL2]
protein stability index [1]: 4.88 ± 0.13
protein stability index [2]: 4.85 ± 0.16

LSNQLAVTFREENTIAFRHLFLLG [MCOLN1]
protein stability index [1]: 2.48 ± 0.11
protein stability index [2]: 2.5 ± 0.18

LSPAQKDLYRDVMLENYSNLVSVG [ZNF649]
protein stability index [1]: 2.37 ± 0.74
protein stability index [2]: 3.02 ± 0.77

LSRHDKAVQRFCLIGSLSKHESEY [NETO1]
protein stability index [1]: 2.72 ± 0.12
protein stability index [2]: 2.69 ± 0.072

LTDVSPEPLQALLERASATLQDLV [PRAME]
protein stability index [1]: 3.05 ± 0.16
protein stability index [2]: 3.33 ± 0.6

LTFHGLILRSQLVTLLVRGVCYSE [CLCN6]
protein stability index [1]: 2.98 ± 0.35
protein stability index [2]: 3.03 ± 0.26

LTLCRSDLEAQMESLKEELLSLKQ [KRT33B]
protein stability index [1]: 2.41 ± 0.28
protein stability index [2]: 2.8 ± 0.24

LTQTMHDLAGLGSETPKSQVGTLL [CDC25B]
protein stability index [1]: 3.39 ± 0.42
protein stability index [2]: 3.62 ± 0.22

LVDNVYCIGQRRFHTMDELVEHYK [NCK2]
protein stability index [1]: 3.68 ± 0.24
protein stability index [2]: 3.96 ± 0.16

LVFQRRMDGQTDFWRDWEDYAHGF [TNXB]
protein stability index [1]: 2.64 ± 0.61
protein stability index [2]: 1.93 ± 0.51

LVNPTCQVLVKDFTFEGFSRLRFL [ZER1]
protein stability index [1]: 2.02 ± 0.23
protein stability index [2]: 2.27 ± 0.29

LVQDQDLEAIRKQDLVELYLTNCE [ZER1]
protein stability index [1]: 3.61 ± 0.4
protein stability index [2]: 3.85 ± 0.38

LVQSSRSEVTELRRVLQGLEIELQ [KRT16]
protein stability index [1]: 3.1 ± 0.24
protein stability index [2]: 3.08 ± 0.38

LVSRHDPASRRRVVEEVRRRATSG [LPCAT4]
protein stability index [1]: 4.5 ± 0.19
protein stability index [2]: 4.49 ± 0.23

LWSDPDDRGGWGISPRGAGYTFGQ [PPP2CA]
protein stability index [1]: 2.5 ± 0.31
protein stability index [2]: 2.72 ± 0.26

LWTSFIQSVSYSKLLSVIVWMLML [P2RY14]
protein stability index [1]: 3.32 ± 0.53
protein stability index [2]: 3.4 ± 0.21

LYLCPNGARCATWFQDPTRFTGTM [SLC25A39]
protein stability index [1]: 2.82 ± 0.64
protein stability index [2]: 2.7 ± 0.63

MAEGSAVSDPQHAARLLRALSSFR [GAN]
protein stability index [1]: 3.16 ± 0.28
protein stability index [2]: 3.3 ± 0.24

MAKFVIRPATAADCSDILRLIKEL [SAT1]
protein stability index [1]: 2.04 ± 0.16
protein stability index [2]: 2.22 ± 0.22

MANIHQENEEMEQPMQNGEEDRPL [BEX3]
protein stability index [1]: 5.46 ± 0.055
protein stability index [2]: 5.71 ± 0.087

MAREHAFNIGLPDNIVNCNEFLCT [ZNF277]
protein stability index [1]: 2.94 ± 0.21
protein stability index [2]: 2.92 ± 0.57

MATPPFRLIRKMFSFKVSRWMGLA [CCDC70]
protein stability index [1]: 2.51 ± 0.48
protein stability index [2]: 2.22 ± 0.099

MCDAFVGTWKLVSSENFDDYMKEV [FABP4]
protein stability index [1]: 2.55 ± 0.44
protein stability index [2]: 2.42 ± 0.46

MCKEHEDEKINIYCLTCEVPTCSM [TRIM63]
protein stability index [1]: 3.35 ± 0.26
protein stability index [2]: 3.27 ± 0.35

MDVAISNNKKWILSASKDRTMRLW [WDR88]
protein stability index [1]: 2.38 ± 0.19
protein stability index [2]: 2.35 ± 0.32

MEAQAQGLLETEPLQGTDEDAVAS [TPD52L1]
protein stability index [1]: 5.56 ± 0.19
protein stability index [2]: 5.56 ± 0.16

MELLRTITYQPAASTKMCEQALGK [PLK2]
protein stability index [1]: 2.46 ± 0.47
protein stability index [2]: 3.06 ± 0.43

METGRWKKINTEGDVPPSMSGSCA [KLHDC2]
protein stability index [1]: 4.01 ± 0.34
protein stability index [2]: 4.21 ± 0.097

MEVLAAETTSQQERLQAIAEKRKR [PALM]
protein stability index [1]: 5.15 ± 0.27
protein stability index [2]: 5.23 ± 0.32

MGDEEKRNRAITARRQHLKSVMLQ [TNNI2]
protein stability index [1]: 4.06 ± 0.3
protein stability index [2]: 4.12 ± 0.21

MGGCPVRKRRRNGSKEGNHHSTQP [FAM104B]
protein stability index [1]: 4.72 ± 0.17
protein stability index [2]: 4.86 ± 0.24

MGGPFSYVYFFCTVPEILVHNIVI [TMEM106C]
protein stability index [1]: 3.23 ± 0.51
protein stability index [2]: 3.19 ± 0.82

MGMNMNIGMSAAGMGLTGTMGMGM [CLINT1]
protein stability index [1]: 2.48 ± 0.18
protein stability index [2]: 2.2 ± 0.28

MGPAPRARPWTRDSASLPRKPSVP [RASAL3]
protein stability index [1]: 4.08 ± 0.14
protein stability index [2]: 4.12 ± 0.23

MGTRDDEYDYLFKVVLIGDSGVGK [RAB11A]
protein stability index [1]: 2.27 ± 0.41
protein stability index [2]: 2.44 ± 0.35

MHPINVRRDPSIPIYGLRQSILLN [C22orf31]
protein stability index [1]: 2.33 ± 0.22
protein stability index [2]: 2.63 ± 0.51

MKALILVGGYGTRLRPLTLSTPKP [GMPPB]
protein stability index [1]: 2.18 ± 0.61
protein stability index [2]: 2.23 ± 0.23

MLKRPVLLHLHQTAHADEFDCPSE [STEAP1]
protein stability index [1]: 3.73 ± 0.29
protein stability index [2]: 3.73 ± 0.48

MMVNLRACSAPGGLVPSEKPPMMP [C2CD2L]
protein stability index [1]: 2.14 ± 0.26
protein stability index [2]: 2.29 ± 0.06

MNTEAEQQLLHHARNGNAEEVRQL [OSBPL1A]
protein stability index [1]: 5.24 ± 0.28
protein stability index [2]: 5.47 ± 0.12

MQAASSKMVSAEISENRKRQWPTK [SDE2]
protein stability index [1]: 4.33 ± 0.33
protein stability index [2]: 4.7 ± 0.17

MQATADSTKMDCVWSNWKSQAIDL [RTN1]
protein stability index [1]: 3.17 ± 0.11
protein stability index [2]: 3.41 ± 0.36

MQPEGLKCRMEESNAERGTAEPFP [CBY2]
protein stability index [1]: 4.88 ± 0.3
protein stability index [2]: 4.69 ± 0.27

MRRGAPQDQELVGPGPPGRGSRGA [MOSPD3]
protein stability index [1]: 5.31 ± 0.44
protein stability index [2]: 5 ± 0.28

MTEMSFLSSEVLVGDLMSPFDQSG [ATF4]
protein stability index [1]: 3.37 ± 0.1
protein stability index [2]: 3.24 ± 0.37

MTQVITRTQEEKLEHVRALIKKYS [TRIM55]
protein stability index [1]: 2.68 ± 0.11
protein stability index [2]: 2.94 ± 0.3

MTVGILSNSLAIAILMKAYQRFRQ [PTGFR]
protein stability index [1]: 2.17 ± 0.28
protein stability index [2]: 2.2 ± 0.31

NEGAIDCVNYEGQSAYDVADMLKQ [DLC1]
protein stability index [1]: 4.82 ± 0.28
protein stability index [2]: 4.82 ± 0.12

NERMLESYLHAKKYLKPSGNMFPT [CARM1]
protein stability index [1]: 2.59 ± 0.26
protein stability index [2]: 2.99 ± 0.37

NEYFFDRNRPSFDAILYYYQSGGR [KCNA3]
protein stability index [1]: 2.34 ± 0.3
protein stability index [2]: 2.42 ± 0.18

NGITQGDKLRALKSQRQPRTSPSC [CDC14A]
protein stability index [1]: 4.16 ± 0.19
protein stability index [2]: 4.14 ± 0.071

NGVLEPLYLCPNGARCATWFQDPT [SLC25A39]
protein stability index [1]: 2.48 ± 0.19
protein stability index [2]: 2.47 ± 0.074

NHRLISEILSESVVPDVRSVVTTA [SMARCE1]
protein stability index [1]: 3.31 ± 0.26
protein stability index [2]: 3.17 ± 0.56

NIMMPMGGMMPPGPGIPPLMPGMP [ZNF207]
protein stability index [1]: 2.87 ± 0.29
protein stability index [2]: 2.88 ± 0.13

NKRVGMYLEGFDPFNQSTFNNVVE [DLC1]
protein stability index [1]: 3.09 ± 0.24
protein stability index [2]: 3.23 ± 0.2

NKVELQAKVESMDQEIKFFRCLFE [KRT71]
protein stability index [1]: 2.52 ± 0.51
protein stability index [2]: 2.48 ± 0.38

NLLRDDRVLQNLLTIEERYLPQCS [CCND2]
protein stability index [1]: 2.49 ± 0.26
protein stability index [2]: 2.58 ± 0.35

NLQSLKFQGGHGPAATLLRRSKT [RIPK4]
protein stability index (treatment: DMSO, c terminus: native): 3.18 ± 0.21
protein stability index (treatment: MLN4924 1 uM, 8 h, c terminus: native): 3.27 ± 0.14

NLSSRWKNWWVRGILTLAMIAFFF [CDS2]
protein stability index [1]: 4.15 ± 0.14
protein stability index [2]: 4.04 ± 0.15

NMMKVLRGHQNWVYSCAFSPDSSM [WSB1]
protein stability index [1]: 2.37 ± 0.96
protein stability index [2]: 2.64 ± 0.54

NMPETLPNNSCYSAGIAKLEEGDE [TNFSF13B]
protein stability index [1]: 5.35 ± 0.23
protein stability index [2]: 5.5 ± 0.21

NNFSPLHLAVDKNTTCVGRYPVCK [FEM1C]
protein stability index [1]: 3.42 ± 0.15
protein stability index [2]: 3.52 ± 0.12

NPTEPATIIFTAAREGRETLKCLS [TOR1AIP2]
protein stability index [1]: 3.71 ± 0.25
protein stability index [2]: 3.69 ± 0.12

NPTQNVRTILLSVISLLNEPNTFS [CDC34]
protein stability index [1]: 2.86 ± 0.54
protein stability index [2]: 2.95 ± 0.61

NQGYLSEAGASLVDQKLELNIVPR [PI4K2A]
protein stability index [1]: 4.05 ± 0.23
protein stability index [2]: 4.33 ± 0.28

NRNHNEGMVTRCIIEVLSNALSKS [CHGB]
protein stability index [1]: 2.25 ± 0.24
protein stability index [2]: 2.1 ± 0.27

NSHVYNGRTHQWKPLYPDDYVHIS [ADAMTSL2]
protein stability index [1]: 2.78 ± 0.31
protein stability index [2]: 2.8 ± 0.34

NSLFIDRQKCMAHRTRYPTILQLA [TEKT4]
protein stability index [1]: 2.23 ± 0.34
protein stability index [2]: 2.12 ± 0.23

NTKLRQAERLFENQLVGPESIAHI [APMAP]
protein stability index [1]: 3.22 ± 0.12
protein stability index [2]: 3.42 ± 0.48

NTRFVVDPSIFTAQPNTMLGRMFG [BTBD10]
protein stability index [1]: 2.51 ± 0.52
protein stability index [2]: 2.44 ± 0.16

NVGLESKYLKKREDSIPLRGLSQN [SASS6]
protein stability index [1]: 4.34 ± 0.19
protein stability index [2]: 4.06 ± 0.26

NVPPIPVETLVKKKIPIISNAMLV [ACSBG2]
protein stability index [1]: 2.4 ± 0.21
protein stability index [2]: 2.38 ± 0.27

NYASIIRRDCMWSGFSARERLERA [MYCL]
protein stability index [1]: 2.78 ± 0.3
protein stability index [2]: 2.77 ± 0.3

NYPKGGLLDSMCPASTPSVLSSEQ [ETS2]
protein stability index [1]: 4.64 ± 0.26
protein stability index [2]: 4.45 ± 0.15

NYQAHQSRVTMILFVLELEWVLST [WDFY2]
protein stability index [1]: 3.1 ± 0.08
protein stability index [2]: 2.89 ± 0.67

PAAGLDVTQPCGDCGTIQENWVCL [HDAC6]
protein stability index [1]: 2.68 ± 0.25
protein stability index [2]: 2.79 ± 0.25

PAYATTRIRSQIGNTESELKKLAE [GDAP1]
protein stability index [1]: 4.53 ± 0.095
protein stability index [2]: 4.53 ± 0.18

PCKLEKMRILAHGELVLATAISSF [TLE6]
protein stability index [1]: 2.7 ± 0.36
protein stability index [2]: 2.45 ± 0.41

PDDSTSEDGIHTLTCALMLLNTDL [PSD2]
protein stability index [1]: 3.12 ± 0.27
protein stability index [2]: 3.1 ± 0.34

PDEERPLRRPRPVQRTQSVPVRRP [RASAL3]
protein stability index [1]: 5.19 ± 0.27
protein stability index [2]: 5.21 ± 0.18

PDREKGFHLDVEDYLSGVLILASE [TSN]
protein stability index [1]: 2.14 ± 0.1
protein stability index [2]: 2.81 ± 0.2

PDSPATGAHWMRQLVSFQKLKLTN [TBX5]
protein stability index [1]: 2.92 ± 0.35
protein stability index [2]: 3 ± 0.21

PEAVDEDRSTEPDRLQVFHKRAIM [ATE1]
protein stability index [1]: 4.8 ± 0.23
protein stability index [2]: 4.91 ± 0.12

PEEPAASTDPNIVRKKERGREEKC [TAF7L]
protein stability index [1]: 5.28 ± 0.53
protein stability index [2]: 5.64 ± 0.32

PEGGLEEPDALDDSLTSLQWLQEF [FOXJ1]
protein stability index [1]: 4.64 ± 0.17
protein stability index [2]: 4.53 ± 0.3

PEGYNLKDEEGRLRDPATITTLRV [PPP2R2B]
protein stability index [1]: 4.54 ± 0.062
protein stability index [2]: 4.37 ± 0.29
